Experimental data published in IntAct's records for PubMed 29892012.

B1: Histone-lysine N-methyltransferase SMYD1 (Homo sapiens), Q8NB12 (parent)
chain: MTIGRMENVEVFTAEGKGRGLKATKEFWAADIIFAERAYSAVVFDSLVNFVCHTCFKRQEKLHRCGQCKFAHYCDRTCQKDAWLNHKNECSAIKRYGKVPNENIRLAARIMWRVEREGTGLTEGCLVSVDDLQNHVEHFGEEEQKDLRVDVDTFLQYWPPQSQQFSMQYISHIFGVINCNGFTLSDQRGLQAVGVGIFPNLGLVNHDCWPNCTVIFNNGNHEAVKSMFHTQMRIELRALGKISEGEELTVSYIDFLNVSEERKRQLKKQYYFDCTCEHCQKKLKDDLFLGVKDNPKPSQEVVKEMIQFSKDTLEKIDKARSEGLYHEVVKLCRECLEKQEPVFADTNIYMLRMLSIVSEVLSYLQAFEEASFYARRMVDGYMKLYHPNNAQLGMAVMRAGLTNWHAGNIEVGHGMICKAYAILLVTHGPSHPITKDLEAMRVQTEMELRMFRQNEFMYYKMREAALNNQPMQVMAEPSNEPSPALFHKKQ
partner: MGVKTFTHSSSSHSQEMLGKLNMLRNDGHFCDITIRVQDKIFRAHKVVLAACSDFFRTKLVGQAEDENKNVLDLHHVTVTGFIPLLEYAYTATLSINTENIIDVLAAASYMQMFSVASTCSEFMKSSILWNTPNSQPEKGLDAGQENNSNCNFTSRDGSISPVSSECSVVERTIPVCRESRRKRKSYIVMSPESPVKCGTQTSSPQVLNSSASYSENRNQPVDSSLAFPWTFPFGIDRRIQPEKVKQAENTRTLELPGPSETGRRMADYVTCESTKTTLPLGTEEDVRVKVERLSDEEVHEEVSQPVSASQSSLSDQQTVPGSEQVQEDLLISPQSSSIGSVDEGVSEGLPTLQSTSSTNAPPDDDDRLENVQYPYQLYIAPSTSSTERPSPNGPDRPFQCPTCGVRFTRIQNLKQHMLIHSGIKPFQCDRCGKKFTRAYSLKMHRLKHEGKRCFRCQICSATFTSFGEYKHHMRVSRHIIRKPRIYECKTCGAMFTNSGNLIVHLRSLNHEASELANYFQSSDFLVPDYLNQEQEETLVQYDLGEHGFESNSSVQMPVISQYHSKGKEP
B2: E3 ubiquitin-protein ligase DZIP3 (Homo sapiens), Q86Y13 (parent)
chain: MDSLPDEFFVRHPAVEDQRKEETENKLEKSSGQLNKQENDIPTDLVPVNLLLEVKKLLNAINTLPKGVVPHIKKFLQEDFSFQTMQREVAANSQNGEEIVPALTLRFLITQLEAALRNIQAGNYTAHQINIGYYLTLLFLYGVALTERGKKEDYTEAENKFLVMKMMIQENEICENFMSLVYFGRGLLRCAQKRYNGGLLEFHKSLQEIGDKNDHWFDIDPTEDEDLPTTFKDLLNNFIKTTESNIMKQTICSYLDCERSCEADILKNTSYKGFFQLMCSKSCCVYFHKICWKKFKNLKYPGENDQSFSGKKCLKEGCTGDMVRMLQCDVPGIVKILFEVVRKDEYITIENLGASYRKLISLKITDTDIRPKISLKFNTKDEMPIFKLDYNYFYHLLHIIIISGTDIVRQIFDEAMPPPLLKKELLIHKNVLESYYNHLWTNHPLGGSWHLLYPPNKELPQSKQFDLCLLLALIKHLNVFPAPKKGWNMEPPSSDISKSADILRLCKYRDILLSEILMNGLTESQFNSIWKKVSDILLRLGMMQEDIDKVKENPIENISLDYHQLSVYLGIPVPEIIQRMLSCYQQGIALQSITGSQRIEIEELQNEEEELSPPLMEYNINVKSHPEIQFAEINKDGTSIPSESSTESLKDLQEVKSKQRKKKKTKNKKNKDSKEDQVPYVVEKEEQLRKEQANPHSVSRLIKDDASDVQEDSAMEDKFYSLDELHILDMIEQGSAGKVTTDYGETEKERLARQRQLYKLHYQCEDFKRQLRTVTFRWQENQMQIKKKDKIIASLNQQVAFGINKVSKLQRQIHAKDNEIKNLKEQLSMKRSQWEMEKHNLESTMKTYVSKLNAETSRALTAEVYFLQCRRDFGLLHLEQTEKECLNQLARVTHMAASNLESLQLKAAVDSWNAIVADVRNKIAFLRTQYNEQINKVKQGFALSTLPPVQLPPPPPSPEILMQQFLGRPLVKESFFRPILTVPQMPAVCPGVVSATGQPRAPLMTGIAWALPAPVGDAVPPSAGLRSDPSIMNWERITDRLKTAFPQQTRKELTDFLRKLKDAYGKSLSELTFDEIVCKISQFIDPKKSQSQGKSVSNVNCVSPSHSPSQPDAAQPPKPAWRPLTSQGPATWEGASNPDEEEEEEEPCVICHENLSPENLSVLPCAHKFHAQCIRPWLMQQGTCPTCRLHVLLPEEFPGHPSRQLPKI

Variants of: B1
Details: with zbt44_human ZBTB44, Q8NCP5

| Variant | effect of a mutation on the interaction |
| --- | --- |
| MTIGRMENVEVFTAEGKGRGLKATKEFWAADIIFAERAYSAVVFDSLVNFVCHTCFKRQEKLHRCGQCKFAHYCDRTCQKDAWLNHKNECSAIKRYGKVPNENIRLAARIMWRVEREGTGLTEGCLVSVDDLQNHVEHFGEEEQKDLRVDVDTFLQYWPPQSQQFSMQYISHIFGVINCNGFTLSDQRGLQAVGVGIFPNLGLVNHDCWPNCTVIFNNGNHEAVKSMFHTQMRIELRALGKISEGEELTVSYIDFLNVSEERKRQLKKQYYFDCTCEHCQKKLKDDLFLGVKDNPKPSQEVVKEMIQFSKDTLEKIDKARSEGLYHEVVKLCRECLEKQEPVFADTNIYMLRMLSIVSEVLSYLQAFEEASFYARRMVDGYMKLYHPNNAQLGMAVMRAGLTNWHAGNIEVGHGMICKAYAILLVTHGPSHPITKDLEAMRVRTEMELRMFRQNEFMYYKMREAALNNQPMQVMAEPSNEPSPALFHKKQ [Q443R] | disrupting interaction strength |

Variants of: B2
Details: with ub2e2_human UBE2E2, Q96LR5
ub2e2_human UBE2E2, Q96LR5, sequence (Q96LR5 whole entry): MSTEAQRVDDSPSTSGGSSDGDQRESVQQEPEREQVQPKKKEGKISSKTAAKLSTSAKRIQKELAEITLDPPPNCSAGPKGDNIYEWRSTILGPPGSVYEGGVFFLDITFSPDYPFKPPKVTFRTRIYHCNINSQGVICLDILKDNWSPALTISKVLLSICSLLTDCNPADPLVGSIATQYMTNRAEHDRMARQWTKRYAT

| Variant | effect of a mutation on the interaction |
| --- | --- |
| M1032R | disrupting interaction strength |

Variants of: B2
Details: with znf24_human ZNF24, P17028
znf24_human ZNF24, P17028, sequence (P17028 whole entry): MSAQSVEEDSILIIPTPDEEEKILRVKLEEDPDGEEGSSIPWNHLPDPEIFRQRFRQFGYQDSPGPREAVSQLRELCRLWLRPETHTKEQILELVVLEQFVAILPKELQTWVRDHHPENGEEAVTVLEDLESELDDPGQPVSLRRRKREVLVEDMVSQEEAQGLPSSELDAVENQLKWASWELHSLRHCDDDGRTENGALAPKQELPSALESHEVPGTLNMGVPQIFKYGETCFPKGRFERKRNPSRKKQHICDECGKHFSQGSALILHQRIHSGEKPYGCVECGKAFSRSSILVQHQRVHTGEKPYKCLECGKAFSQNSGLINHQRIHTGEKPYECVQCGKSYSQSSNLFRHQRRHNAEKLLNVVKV

| Variant | effect of a mutation on the interaction |
| --- | --- |
| M1032R | disrupting interaction strength |

Variants of: B2
Details: with hnrl1_human HNRNPUL1, Q9BUJ2
hnrl1_human HNRNPUL1, Q9BUJ2, sequence (Q9BUJ2 whole entry): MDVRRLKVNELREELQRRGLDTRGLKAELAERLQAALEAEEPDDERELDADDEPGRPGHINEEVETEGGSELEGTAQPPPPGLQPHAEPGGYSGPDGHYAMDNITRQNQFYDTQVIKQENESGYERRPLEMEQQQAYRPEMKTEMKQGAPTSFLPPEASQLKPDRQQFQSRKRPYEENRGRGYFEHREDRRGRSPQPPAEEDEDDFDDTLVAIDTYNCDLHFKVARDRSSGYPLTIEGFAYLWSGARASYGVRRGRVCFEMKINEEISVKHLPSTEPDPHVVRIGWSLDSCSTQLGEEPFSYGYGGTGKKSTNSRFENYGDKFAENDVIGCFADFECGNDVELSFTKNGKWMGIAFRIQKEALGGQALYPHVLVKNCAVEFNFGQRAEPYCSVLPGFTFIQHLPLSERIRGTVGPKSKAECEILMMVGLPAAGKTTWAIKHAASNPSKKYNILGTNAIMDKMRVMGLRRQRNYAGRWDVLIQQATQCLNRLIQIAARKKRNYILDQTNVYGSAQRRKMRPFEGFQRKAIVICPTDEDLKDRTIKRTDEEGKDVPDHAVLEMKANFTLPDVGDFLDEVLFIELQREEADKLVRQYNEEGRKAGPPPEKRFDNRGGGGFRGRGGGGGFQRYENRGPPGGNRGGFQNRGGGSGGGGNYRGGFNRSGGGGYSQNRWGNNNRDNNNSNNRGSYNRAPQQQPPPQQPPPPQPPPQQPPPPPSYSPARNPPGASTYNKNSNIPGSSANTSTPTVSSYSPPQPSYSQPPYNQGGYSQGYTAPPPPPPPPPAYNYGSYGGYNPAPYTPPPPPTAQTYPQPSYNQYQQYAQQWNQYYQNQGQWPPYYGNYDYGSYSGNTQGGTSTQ

| Variant | effect of a mutation on the interaction |
| --- | --- |
| M1032R | with no effect |

Variants of: B2
Details: with zch10_human ZCCHC10, Q8TBK6
zch10_human ZCCHC10, Q8TBK6, sequence (Q8TBK6 whole entry): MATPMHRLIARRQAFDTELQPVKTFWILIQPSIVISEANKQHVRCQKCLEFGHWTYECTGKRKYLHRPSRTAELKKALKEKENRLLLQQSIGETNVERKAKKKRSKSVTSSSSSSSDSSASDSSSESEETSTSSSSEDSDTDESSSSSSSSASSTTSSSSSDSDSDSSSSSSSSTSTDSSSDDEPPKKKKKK

| Variant | effect of a mutation on the interaction |
| --- | --- |
| M1032R | disrupting interaction strength |
